Results from PMC3939855 (Nature immunology, 2013).
Read-outs that look alike come from different tables or passages of the source.

Assays:
[1] = biological target: the molecule itself
native gel or EMSA = biological target: the molecule itself; test: native gel or EMSA

Protein | stoichiometry N [1] | stoichiometry N (native gel or EMSA)
ELF4 (expressed from a plasmid; tag not stated for the experiment) (natural protein) not shown | 2 | –
ELF4 (endogenous, human cells) (natural protein) not shown | – | 2
ELF4 (endogenous, mouse cells) (natural protein) not shown | – | 2
